Assay [1] deals with Human rRAGE, full-length RAGE recombinant protein from Merck (human) (UniProt Q15109). Kind of assay: SPR (Biacore T200), antibody amine-coupled to a CM5 chip as ligand, RAGE recombinant protein (Merck) as analyte, multi-cycle kinetics, 1:1 fit. (In general: Surface plasmon resonance follows binding to a sensor surface in real time, without labels.)
In assay [2] the target is synthetic peptide S155 of the RAGE V-domain (amino acids 39-65) (human). Kind of assay: SPR (Biacore T200), antibody amine-coupled to a CM5 chip as ligand, RAGE peptide S155 (BioRad) as analyte, multi-cycle kinetics, 1:1 fit; 'No steady state.'.
Assay [3] has the same target. Kind of assay: ELISA, BSA-conjugated peptide S155 on the plate, two-fold dilutions of antibody, HRP anti-mouse, OD 450 nm. Background: In an ELISA, binding on a coated surface is turned into a signal by an enzyme label.
Assay [4] deals with T1, RAGE synthetic peptide (S155) (Homo sapiens, UniProt Q15109).
T1 construct: purchased Biorad; host or cells: chemical synthesis
The assay is described as follows: ELISA screening of purified anti-RAGE antibody clones. Type of assay: binding. To be noted: BSA-conjugated peptide S155; serial dilutions of antibody; 6 murine clones compared. The protocol: A 96-well plate was coated with 5 μg/ml of RAGE synthetic peptides or RAGE recombinant protein diluted in phosphate-buffered saline (pH 7.4) overnight at 4° C. The solution was removed, washed with PBS-Tween (PBST) and the plate was blocked with ELISA ultrablock buffer (Biorad) for 1 h at room temperature. After blocking, the plate was washed with PBST and a range of concentrations of α-RAGE antibodies was applied to the plate for 2 h at room temperature. The plate was washed thoroughly with PBST and incubated with HRP-conjugated anti-mouse antibodies diluted 1:1000 in PBS-Tween. After washes with PBST, TMB Core+ substrate solution (Biorad) was added to each well and incubated at room temperature for 30 minutes. 0.2M H2SO4 was used as a stop solution. Absorbance at 450 nm was measured in a Biorad absorbance microplate reader.

Assay [5] relates to RAGE. The assay is described as follows: Western blot on protein extracts from ovarian cancer cell lines (OCCL). Conditions: whole-cell extracts of SKOV3, OVCAR3, A2780 and cisplatin-resistant lines; antibody 1 μg/mL. More on the design: species or system human. The protocol:
Confluent cultures of cells were lysed in ice cold RIPA buffer (Sigma-Aldrich), whole-cell protein extracts were quantified with DC protein assay, 30 μg/lane were resolved by SDS-PAGE on TGX precast gels, transferred to mini PDVF membranes, blocked 1 h at RT in 5% Bovine Serum Albumin (BSA) in TBST (Tris Buffered Saline, 0.1% Tween-20) and incubated o/n at 4° C. in the same solution with 1 μg/mL of mA9 (sc-365154, Santa Cruz Biotechnology) antibody, mHA9 antibody or hHA9 antibody, or GAPDH (Santa Cruz Biotechnology) as loading control. Membranes were then washed with TBST and incubated 1 h at RT with 0.1 μg/mL of IgG horseradish peroxidase secondary antibody (GE Healthcare) or […] of Goat F(ab′) 2 Anti-Mouse IgG-F(ab′) 2 horseradish peroxidase secondary antibody (Abcam). Target proteins were visualised after incubation with Clarity Western ECL Substrate and imaged using a ChemiDoc System Bio-Rad Imager. Bands were quantified with ImageLab software. Unless stated all the materials specified above were obtained from Bio-Rad Laboratories.

The target of assay [6] is T2, RAGE recombinant protein (Human rRAGE) (Homo sapiens, UniProt Q15109).
T2 construct: Human rRAGE=Full-length RAGE recombinant protein from Merck; purchased Merck
Kind of assay: Surface plasmon resonance binding kinetics (Biacore T200), recombinant protein analyte. To be noted: analyte RAGE recombinant protein, or RAGE synthetic peptide, not separated. As to the method:
For on-rate and off-rate screening, Biacore™ T200 system (Cytiva, Uppsala, Sweden) was used to perform SPR analysis with 1×HBS-EP+ buffer (0.01M Hepes, 0.15M NaCl, 0.003M ethylenediaminetetraacetic acid, and 0.05% Surfactant P20, pH 7.4) (BR100669) used as sample and running buffer. The analysis temperature at the sensor chip surface and within the compartment was set to 25° C. Firstly, pH scouting with 10 mM sodium acetate buffer 4.0 (BR-1003-49), 10 mM sodium acetate buffer 4.5 (BR-1003-50), 10 mM sodium acetate buffer 5.0 (BR-1003-51) and 10 mM sodium acetate buffer 5.5 (BR-1003-52) was performed to identify the optimal pH required for ligand (α-RAGE antibodies) immobilization. This was followed by diluting the ligand with the appropriate Acetate buffer to at least 10 μg/mL. The ligand immobilization on the surface Series S Sensor Chip CM5 (29-1496-03, Cytiva) was performed using the Amine Coupling Kit (BR100050, Cytiva) containing 1-Etyhyl-3-(3-dimethylaminopropyl)-carbodiimide hydrochloride (EDC), N-Hydroxysuccinimide (NHS) and 1.0M ethanolamine-HcL PH 8.5 in accordance with the manufacturer's instructions. For each experimental run, the ligand was immobilized in flow cells 2 or 4 while flow cells 1 or 3 were left unmodified. Flow cells 2 and 4 were used as active flow cells while flow cells 1 and 3 were used as reference flow cells. Ligand immobilization levels were typically within the range 500-900 RU for the kinetic experiments and injected with a flow rate of 10 μL/min and contact time of 300 s. Analytes (RAGE recombinant protein and synthetic peptides) were injected for 120 s with a flow rate of 30 μL/min and dissociation time of 600 s run in order of increasing concentration over the reference and active flow cells using a multi-cycle kinetic approach with five-seven concentration range. Following each binding cycle, the surface was regenerated with a 30 s injection of 10 mM Glycine-HcL, pH 2.5 regeneration solution (BR-1003-56), removing the bound antibody with a contact time of 30 s, flow rate of 30 μL/min and a stabilization period of Os. […]

Assay [7] concerns the target RAGE (Homo sapiens, UniProt Q15109). Kind of assay: Western blot on protein extracts from human healthy tissues. To be noted: brain, breast, kidney, liver, lung, ovary, pancreas, spleen and uterus. In general terms: In western blotting, separated proteins are transferred to a membrane and probed.
In assay [8] the test system is SKOV3 cells. Kind of assay: Internalisation assay on SKOV3 cells. It is filed as cell-based, human. To be noted: 4 h or 24 h at 37° C., compared with other clones and AB11451. As to the method: To screen internalization capacity and traffic to lysosomes of α-RAGE antibodies, all the primary antibodies used in the screening were conjugated to pHAb Amine Reactive Dye following manufacturer's instructions (Promega, UK, Cat. No. G983). This type of dye emits fluorescence when traffics to acidic environments (late endosome and lysosome). For this purpose, 1.5×10^4 SKOV3 cells/well were seeded in 8-well chamber slides (Ibidi) in 300 μl of stripped medium and cultured for 24 h in a humidified, 5% CO2 in air atmosphere incubator at 37° C. After culture, cells were washed in pre-warmed (37° C.) Dulbecco's phosphate buffered saline (DPBS) and slides placed on ice. Cells were treated with control medium or medium containing one of the α-RAGE antibodies conjugated to pH-dye at 10 μg/ml, and the 8-well chamber slides were incubated on ice for 30 minutes. Slides were then transferred to the incubator at 37° C. for 4 h or 24 h. After internalization time, cells were washed in DPBS, fixed in 4% paraformaldehyde for 20 min and permeabilized with 0.1% Triton X-100 (Sigma) for 10 minutes at 4° C. Cells were washed with PBS extensively between all steps, counterstained before imaging with Hoechst (Life Technologies™) and imaged using a LSM710 confocal fluorescence microscopy system (Zeiss, UK). Unconjugated α-RAGE antibodies were also used in the internalisation assay. In this case were visualized using Alexa-fluorophore secondary antibodies as described in the immunofluorescence method.

Broadly, the Kd is the constant that tells how readily two partners part at equilibrium. The term koff denotes the first-order rate constant of dissociation. In general, kon refers to the rate constant with which the complex forms. What is called EC50 (read off the curve) is the midpoint of the concentration-response curve. A low value points to higher potency in that assay.

Sequence of Human rRAGE, full-length RAGE recombinant protein from Merck (human) (Q15109 23-404 limits assumed): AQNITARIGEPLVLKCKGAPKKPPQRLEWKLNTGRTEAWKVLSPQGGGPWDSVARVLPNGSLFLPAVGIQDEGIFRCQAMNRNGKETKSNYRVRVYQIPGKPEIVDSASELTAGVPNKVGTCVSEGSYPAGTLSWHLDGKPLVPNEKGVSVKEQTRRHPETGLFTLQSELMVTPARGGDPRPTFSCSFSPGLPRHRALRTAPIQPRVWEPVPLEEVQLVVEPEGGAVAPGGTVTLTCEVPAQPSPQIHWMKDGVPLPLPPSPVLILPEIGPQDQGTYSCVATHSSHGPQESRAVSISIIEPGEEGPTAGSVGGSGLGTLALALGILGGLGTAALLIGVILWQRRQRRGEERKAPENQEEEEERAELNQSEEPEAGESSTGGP
Sequence of synthetic peptide S155 of the RAGE V-domain (amino acids 39-65) (human) (peptide, as listed by the source): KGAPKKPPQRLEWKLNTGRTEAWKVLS
Sequence of RAGE (Homo sapiens, UniProt Q15109) (Q15109 23-404): as the sequence (Q15109 23-404 limits assumed) above
T2 sequence (Q15109 23-404): as the sequence (Q15109 23-404 limits assumed) above

B1: murine ID9 anti-RAGE monoclonal antibody (antibody, part only; not given: Light chain variable region, V domains shown, part only)
VH: QVTLKESGPGILKPSQTLSLTCSFSGFSLSTSGMGVGWIRQPSGKGLEWLAHIWWDDDKYYKPSLKSQVTISKDTSRNQVFLKITSVDTADTATYYCARSRYYGSSGMDYWGQGTSVTVSS
In the case of B1, in assay [1], the Kd is 6.94 µM, the koff turned out to be 0.00561 s⁻¹ and the kon is 808 M⁻¹ s⁻¹. In assay [2], this molecule yielded a Kd of 0.2 µM, a koff of 0.00515 s⁻¹ and a kon of 25000 M⁻¹ s⁻¹. The EC50 (read off the curve) in assay [3] turned out to be 1 µg/mL.

B2: mHA9: murine version of anti-RAGE antibody clone HA9 (antibody, V domains shown)
VH: EVKLVETGGGLVQPGRPMKLSCVASGFTLSDHWMNWVRQSPEKGLEWVAQIRNRPYKFEKYYSDSVKGRFTISRDDSKNSVYLQMNNLRAEDMGIYYCSSYRYGLAYWGQGTLVTVST
VL: DNLLTQSPAILSVSPGERVSFSCRASQTIDTRIHWYQQRKNGSPRLLIRYISESLSGIPSRFSGSGSGTEFTLTINSVESEDIADYYCQQTESWPITFGSGTKLEIK
As for B2, the “binding to immobilised RAGE synthetic peptide” value in assay [4] is reported as “highest affinity for the peptide sequence antigen”. Besides, the “RAGE isoform detected by western blot” value in assay [5] is listed as “able to detect expression levels of full-length transmembrane RAGE”. The “affinity interaction by SPR (summary statement)” value in assay [6] was “weak affinity interaction”. Moreover, the “RAGE expression detected in human healthy tissues” value in assay [7] was “absent or very low expression”.

B3: HA9: anti-RAGE monoclonal antibody clone, VH SEQ ID NO: 7, VL SEQ ID NO: 8, raised against RAGE aa 39-65 (antibody, V domains shown)
Sequence of RAGE (Q15109 23-317 limits assumed): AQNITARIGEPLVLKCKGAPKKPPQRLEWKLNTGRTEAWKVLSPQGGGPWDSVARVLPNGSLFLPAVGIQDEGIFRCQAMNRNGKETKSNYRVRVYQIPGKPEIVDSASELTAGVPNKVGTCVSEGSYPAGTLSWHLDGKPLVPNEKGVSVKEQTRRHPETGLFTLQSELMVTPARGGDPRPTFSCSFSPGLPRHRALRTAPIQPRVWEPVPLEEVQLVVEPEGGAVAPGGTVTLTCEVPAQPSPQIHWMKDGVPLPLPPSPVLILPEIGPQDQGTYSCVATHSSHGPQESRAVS
VH: B2 VH
VL: B2 VL
As to B3, in assay [4], the “binding to immobilised RAGE synthetic peptide” value is “best binding response to the antigen”. Also, the “uptake (internalisation), secondary antibody detection” value in assay [8] is “highest uptake levels”.

For the origin of these results see patent publication US20250163149A1, “ANTI-RAGE ANTIBODY” (Swansea University, priority 2022, published 2025).
